Source: publication PMC4915166

Biological target: gp91^phox, the catalytic subunit of NADPH oxidase (Nox2) (mouse (endogenous in mouse microglia)) (UniProt Q61093)
Sequence (Q61093 whole entry): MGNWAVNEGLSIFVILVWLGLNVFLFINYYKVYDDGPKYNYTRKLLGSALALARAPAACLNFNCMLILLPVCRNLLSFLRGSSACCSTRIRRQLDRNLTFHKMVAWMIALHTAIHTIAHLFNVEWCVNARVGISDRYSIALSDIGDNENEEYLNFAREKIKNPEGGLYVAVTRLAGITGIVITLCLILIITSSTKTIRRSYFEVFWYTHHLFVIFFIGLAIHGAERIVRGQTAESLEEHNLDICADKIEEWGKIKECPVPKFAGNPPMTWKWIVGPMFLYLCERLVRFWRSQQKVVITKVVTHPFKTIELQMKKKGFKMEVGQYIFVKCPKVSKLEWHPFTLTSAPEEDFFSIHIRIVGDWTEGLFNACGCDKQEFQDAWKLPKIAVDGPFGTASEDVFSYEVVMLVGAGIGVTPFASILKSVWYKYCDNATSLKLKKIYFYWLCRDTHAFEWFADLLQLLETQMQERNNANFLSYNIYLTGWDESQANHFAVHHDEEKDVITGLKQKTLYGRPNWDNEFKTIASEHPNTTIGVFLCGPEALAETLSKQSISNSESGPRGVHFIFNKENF

- extracellular superoxide released by mouse microglia (SOD-inhibitable WST-1 reduction), 1.0 μM peptide, increase over the BSA control (% increase compared to the BSA control): 129
Substance: A29-V40 α-Syn peptide (WT, unlabeled, purity >98 %) (from UniProt P37840 29-40)
